In patent US20120258099A1 one finds RhoA activation in intact cells, pull-down of RhoA-GTP with GST-RBD (fold over control) data, which are given here for 1 substance.

The target of this assay is RhoA in NIH3T3 cells (UniProt Q9QUI0). Description: cell-based or functional assay.
RhoA in NIH3T3 cells, sequence (Q9QUI0 1-190 limits assumed): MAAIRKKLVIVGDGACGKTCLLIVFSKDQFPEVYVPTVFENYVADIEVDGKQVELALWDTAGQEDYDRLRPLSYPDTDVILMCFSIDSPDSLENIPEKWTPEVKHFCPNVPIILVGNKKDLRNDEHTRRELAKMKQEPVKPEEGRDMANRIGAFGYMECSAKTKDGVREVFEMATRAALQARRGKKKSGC

“GFP-Tgat (from UniProt P42212 1-238; O75962 1862-2101) (enzyme)” gave a RhoA activation in intact cells, pull-down of RhoA-GTP with GST-RBD (fold over control) of 8.
